Results taken from patent US20200408765A1 (Sanofi, published 2020).

Biological target: human CD38 (human, UniProt P28907 1-300)
Assay: cell-based or functional assay

B1: chimeric 38SB31 (antibody, V domains shown)
VH: DVKLVESGGGLVKPGGSLKLSCEASGFTFSSYTLSWVRQTPETRLEWVATISIGGRYTYYPDSVEGRFTISRDNAKNTLYLQMNSLKSEDTAMYYCTRDFNGYSDFWGQGTTLTVSS
VL: DTVMTQSHKFISTSVGDRVSITCKASQVVGSAVAWYQQKPGQSPKLLIYWASTRHTGVPDRFTGSGSGTDFTLTISNVQSEDLADYFCQQYNSYPYTFGGGTKLEIKR
  CDC: specific viability of Daudi cells with 1.25 µg/mL or higher antibody and complement: 53%
